These are literature values, as cited in paper PMC7379096 (ACS Omega, 2020).

For this data set the following is noted: stated in the method section, no reference given.

Turning to Immunoglobulin G [IgG], the pI is listed as 5.5–8.3.
